Measured values from patent US20100015126A1, “Methods of Binding of Cross-Beta Structures By Chaperones” (priority 2006, published 2010).

Target: T1, Escherichia coli HSP70 family member DnaK (Escherichia coli, UniProt P0A6Y8)
T1 construct: purchased Stressgen (Ann Arbor, Mich., USA) SPP-630
Assay: ELISA: binding of DnaK to immobilized (misfolded) protein ligands
Description: Recombinant Escherichia coli (E. coli) DnaK was purchased from Stressgen (Ann Arbor, Mich., USA; SPP-630). For the binding studies first lot B502468 (100 μg, lot A) and then lot 05240609 (200 μg, lot B) was used.
Binding of chaperones to immobilized (misfolded) protein ligands was determined using an enzyme linked immuno sorbent assay (ELISA) approach. For this purpose 50 μl/well of potential ligands at indicated concentrations or coat buffer only for control and background measurement purposes, were coated overnight at 4° C. or coated for 1 h at room temperature, with motion, in 50 mM NaHCO3 pH 9.6 (coat buffer). In general, ligands were coated at 5 μg/ml, unless stated otherwise. For example, BiP binding peptides 6BB# and oxLDL were coated at 50 μg/ml. Native haemoglobin (Sigma-Aldrich, H7379), albumin, IgIV Gammagard and ovalbumin controls were prepared from lyophilized stocks. The controls were prepared by dissolving lyophilized proteins at 1 mg/ml in PBS upon resuspending by pipetting, followed by a 30 minutes period at the roller device, at room temperature. The protein solutions were centrifuged for 10 minutes at 16,000*g and diluted in coat buffer. After coating the plates were washed at least three times with 50 mM Tris-HCl pH 7.3, 150 mM NaCl, 0.1% v/v Tween20, and blocked with Blocking reagent (Roche Diagnostics, Almere, The Netherlands; 11112589001), for 1 h at room temperature, with motion. Plates were washed three times and incubated in triplicate with indicated chaperone dilution series, at 50 μl/well, for 1 h at room temperature, with constant motion. For HSP90, 5 mM DTT is incorporated in the binding buffer (PBS/0.1% Tween20) to avoid unwanted disulfide bond formation of the HSP90. Plates were washed three times and incubated with anti-FLAG antibody (mouse antibody, M2, peroxidase conjugate; Sigma, A-8592) for BiP-FLAG-His, anti-His-tag antibody (Mouse Monoclonal Antibody, Cat. No. 70796, Novagen [0.2 mg/ml]) for HSP60, a 1:1 mix of 500-fold diluted anti-HSP90beta antibodies (Stressgen, SPA-643 [mouse monoclonal IgM], SPA-646 [rabbit polyclonal]) for HSP90 and an anti-DnaK antibody (Stressgen, 023SPA-880D [mouse monoclonal antibody]) for DnaK. After four wash cycles, secondary antibodies were added to the wells when required, 50 μl/well, for 45′ at room temperature, with motion. RAMPO and SWARPO were used at 3000 times dilution. […] In a second experiment with more immobilized misfolded proteins and controls, the detection of bound HSP90 with the mix of two anti-HSP90 antibodies was achieved by mixing 1:1500 SWARPO with 1:3000 RAMPO. After 5 washes with wash buffer followed by two washes with PBS, binding of antibodies was assessed. Bound anti-FLAG-PO, peroxidase-conjugated rabbit anti-mouse immunoglobulins (RAMPO, P0260, DAKOCytomation, Glostrup, Denmark) or peroxidase-coupled swine anti-rabbit immunoglobulins (SWARPO, P0217, DAKOCytomation) was visualized with tetramethylbenzidine (TMB, #45.01.20,/#45.014.01, Biosource, Nivelles, Belgium). The reaction was stopped after 5 minutes with 1% H2SO4 in H2O. Plates were read at 450 nm. Triplicates were averaged and standard deviations calculated. Background signals obtained with buffer-coated wells were subtracted (binding of primary antibody to empty wells), as well as background signals obtained with ligand-coated wells in which the chaperones were omitted (binding of primary and secondary antibody to coated ligands). Subsequently, sub-optimal concentrations of chaperones for binding to misfolded protein ligands are determined, and these concentrations are used for inhibition studies. […] We have previously identified that a sub-fraction of IgIV molecules has affinity for misfolded proteins comprising crossbeta structure (pending patent application). Moreover, we identified that the sub-fraction of IgIV molecules directly binds to crossbeta structure and/or crossbeta structure induced conformation (not shown; pending patent application). […]

T1 sequence (P0A6Y8 whole entry): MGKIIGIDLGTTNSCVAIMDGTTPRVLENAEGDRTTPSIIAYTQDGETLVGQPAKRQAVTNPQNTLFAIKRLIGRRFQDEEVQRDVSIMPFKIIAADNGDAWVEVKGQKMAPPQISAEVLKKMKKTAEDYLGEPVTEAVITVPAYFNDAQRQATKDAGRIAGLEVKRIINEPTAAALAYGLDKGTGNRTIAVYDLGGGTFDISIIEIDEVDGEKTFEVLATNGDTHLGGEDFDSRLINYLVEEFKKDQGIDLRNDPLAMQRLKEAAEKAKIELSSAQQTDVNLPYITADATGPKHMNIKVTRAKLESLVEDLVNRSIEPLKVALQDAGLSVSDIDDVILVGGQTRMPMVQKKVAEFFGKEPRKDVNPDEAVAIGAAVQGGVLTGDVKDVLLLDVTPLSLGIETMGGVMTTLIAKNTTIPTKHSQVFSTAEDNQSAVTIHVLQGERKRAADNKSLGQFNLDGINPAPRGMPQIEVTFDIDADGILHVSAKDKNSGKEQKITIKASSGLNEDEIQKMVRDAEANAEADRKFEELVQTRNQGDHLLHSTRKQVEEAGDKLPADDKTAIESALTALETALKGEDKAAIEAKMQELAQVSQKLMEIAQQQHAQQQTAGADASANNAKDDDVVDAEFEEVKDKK

native BSA: non-modified bovine serum albumin control
Binding of concentration series of DnaK to coated ligand: No binding

BSA-AGE
Binding of concentration series of DnaK to coated ligand: has been established

AGEYYAAL [6BB7]
Binding of concentration series of DnaK to coated ligand: No binding

GSNKGAIIGLM [6BB6, Human Aβ (25-35)]
Binding of concentration series of DnaK to coated ligand: has been established

Hb: non-modified human haemoglobin control
Binding of concentration series of DnaK to coated ligand: Low binding

HbAGE: human haemoglobin glycated with glucose-6-phosphate for 75 weeks
Binding of concentration series of DnaK to coated ligand: has been established

KLVFFAE [6BB12, Human Aβ16-22]
Binding of concentration series of DnaK to coated ligand: did not bind
